From doi:10.1101/416032

Target: BG505.SOSIP.664-AviB (HIV-1 (clade A, BG505)) (UniProt Q2N0S6)
Experiment: BLI

| Substance | Kd [nM] |
| --- | --- |
| BF520.1 matureVHnaïveVK mAb (antibody) | 8.95 |
| BF520.1 naïveVHmatureVK mAb (antibody) | < 0.001 |
